T1: recombinant human Nectin-1 extracellular domain (human, UniProt Q15223 31-355)
T1 sequence (looked up): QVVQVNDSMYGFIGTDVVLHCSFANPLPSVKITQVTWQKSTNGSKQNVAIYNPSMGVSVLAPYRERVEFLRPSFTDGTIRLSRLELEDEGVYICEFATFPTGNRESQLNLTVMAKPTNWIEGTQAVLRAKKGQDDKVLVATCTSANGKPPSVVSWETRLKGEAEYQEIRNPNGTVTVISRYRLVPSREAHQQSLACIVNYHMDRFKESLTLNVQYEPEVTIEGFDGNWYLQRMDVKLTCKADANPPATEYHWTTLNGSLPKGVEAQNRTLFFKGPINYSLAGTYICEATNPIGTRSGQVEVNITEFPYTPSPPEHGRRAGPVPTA

T2: Nectin-4 natively expressed on NIH:OVCAR5 parental cells (human, UniProt Q96NY8 32-510)
T2 construct: whole, on cells; The cells also express Nectin-1; also called NIH:OVCAR-5 cells
T2 sequence (looked up): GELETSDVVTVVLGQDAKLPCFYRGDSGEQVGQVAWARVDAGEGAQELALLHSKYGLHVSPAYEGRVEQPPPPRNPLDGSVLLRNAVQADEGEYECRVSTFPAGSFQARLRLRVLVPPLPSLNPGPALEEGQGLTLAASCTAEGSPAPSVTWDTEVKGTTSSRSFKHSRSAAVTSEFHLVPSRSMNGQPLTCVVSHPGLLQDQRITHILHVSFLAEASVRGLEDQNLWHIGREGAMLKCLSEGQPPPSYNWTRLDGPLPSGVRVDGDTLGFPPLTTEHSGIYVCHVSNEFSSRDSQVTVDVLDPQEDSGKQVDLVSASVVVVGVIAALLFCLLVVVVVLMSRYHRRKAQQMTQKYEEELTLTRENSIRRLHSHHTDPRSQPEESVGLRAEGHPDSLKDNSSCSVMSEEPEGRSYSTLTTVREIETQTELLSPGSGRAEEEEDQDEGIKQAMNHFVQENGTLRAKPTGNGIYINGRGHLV


Key:
[1] = molecular target: recombinant human Nectin-1 extracellular domain (human) (UniProt Q15223); test: cell-based or functional assay
[2] = molecular target: T1, recombinant human Nectin-1 …; test: cell-based or functional assay
[3] = molecular target: full-length Nectin-4 overexpressed on NIH:OVCAR5-N4-over cells, Q96NY8; test: cell-based or functional assay
[4] = molecular target: T2, Nectin-4 natively expressed on …; test: cell adhesion assay, NIH:OVCAR5 parental cells on coated microtiter plates
Experimental: Black, clear-bottom 96-well microtiter plates (Corning, Imported Costar, Corning, N.Y.) were coated with recombinant human Nectin-1 extracellular domain (R&D Systems), recombinant human Nectin-4 extracellular domain (R&D Systems), mouse laminin (Invitrogen™), or bovine serum albumin (BSA; Prohumin Diagnostic Grade, MilliPore) diluted in PBS. Covered plates were incubated overnight at 37° C. in a humidified incubator. After washing with PBS plus Ca²⁺/Mg²⁺ containing 2 mg/ml ovalbumin (Sigma-Aldrich), the plates were blocked for 1 h at 37° C. with 1% BSA in PBS without Ca²⁺/Mg²⁺. Confluent monolayers of NIH:OVCAR5 cells or NIH:OVCAR5-N4-over cells were detached with Accutase, and then filtered through a 40 μm cell strainer (BD Biosciences, San Jose, Calif.) to remove cell aggregates. The single cells were stained with CellTracker Green CMFDA (5-chlorornethylfluorescein diacetate; Invitrogen™) according to the manufacturer's protocol. After washing the plate, 30,000 cells were added to each well in 50 μl of RPMI 1640 media containing 2 mg/ml ovalbumin and allowed to adhere for 15-60 min at 37° C. Plates were vigorously washed four times and read in a BioTek Synergy fluorescent microplate reader (BioTek, Winooski, Va.). Experiments were conducted in triplicate. […]

Molecule	inhibition of adhesion of NIH:OVCAR5-N4-over cells to Nectin-1 [2]	inhibition of adhesion of NIH:OVCAR5-N4-over cells to Nectin-1 [3] [%]	also measured
mouse monoclonal antibody against human Nectin-1, R&D Systems MAB2880, clone #610835			inhibition of cell adhesion to Nectin-1 [1]: 60%
H-HSQVVQVNDSMYGF-NH2 [N1-P1]		> 50	
recombinant human Nectin-4 extracellular domain (receptor, UniProt Q96NY8 32-349, looked up, extracellular domain; Bought reagent, coated on microtiter plates; also called recombinant Nectin-4) GELETSDVVTVVLGQDAKLPCFYRGDSGEQVGQVAWARVDAGEGAQELALLHSKYGLHVSPAYEGRVEQPPPPRNPLDGSVLLRNAVQADEGEYECRVSTFPAGSFQARLRLRVLVPPLPSLNPGPALEEGQGLTLAASCTAEGSPAPSVTWDTEVKGTTSSRSFKHSRSAAVTSEFHLVPSRSMNGQPLTCVVSHPGLLQDQRITHILHVSFLAEASVRGLEDQNLWHIGREGAMLKCLSEGQPPPSYNWTRLDGPLPSGVRVDGDTLGFPPLTTEHSGIYVCHVSNEFSSRDSQVTVDVLDPQEDSGKQVDLVSAS			binding result [4]: no binding (tested: 1 µg/well, up to 1 h)
H-NWYLQRMDVKLTCK-NH2 [N1-P20]		> 50	inhibition of cell adhesion [3]: 100%

Continued, in another order:

inhibition of adhesion of NIH:OVCAR5-N4-over cells to Nectin-1 [2]	inhibition of adhesion of NIH:OVCAR5-N4-over cells to Nectin-1 [3] [%]	Molecule	also measured
≥ 50 >=50 of the printed range 50-100 %		H-QRITHILHVSFLAE-NH2 [N4-P18]	
	> 50	H-ACIVNYHMDRFKES-NH2 [N1-P17]	
≥ 50 >=50 of the printed range 50-100 %		H-TGNGIYINGRGHLV-NH2 [N4-P29]	
≥ 50 >=50 of the printed range 50-100 %		H-QARLRLRVLVPPLP-NH2 [N4-P10]	
	> 50	H-VNITEFPYTPSPPEHGRRA-NH2 [N1-P26]	
≥ 50 >=50 of the printed range 50-100 %		H-WTRLDGPLPSGVRV-NH2 [N4-P22]	
